From the supplement of paper PMC7877785
± gives the uncertainty stated by the source.

Assay: self-splicing fitness, log relative to wild type (ln ratio); higher = more splicing; Tetrahymena group I intron in knt gene, E. coli kanamycin selection, DiMSum; sequences stand for … in CUCUCU…GGAGGGAAAAGUUAUCAGGCAUGCACCUGGUAGCUAGUCUUUAAACCAAUAGAUUGCAUCGGUUUAAAAGGCAAGACCGUCAAAUUGCGGGAAAGGGGUCAACAGCCGUUCAGUACCAAGUCUCAGGGGAAACUUUGAGAUGGCCUUGCAAAGGGUAUGGUAAUAAGCUGACGGACAUGGUCCUAACCACGCAGCCAAGUCCUAAGUCAACAGAUCUUCUGUUGAUAUGGAUGCAGUUCACAGACUAAAUGUCGGUCGGGGAAGAUGUAUUCUUCUCAUAAGAUAUAGUCGGACCUCUCCUUAAUGGGAGCUAGCGGAUGAAGUGAUGCAACACUGGAGCCGCUGGGAACUAAUUUGUAUGCGAAAGUAUAUUGAUUAGUUUUGGAGUACUCGUGGUCG
Method in brief: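 Colonies from six replicate transformations of E. coli BL21(DE3) were pooled and amplicon-sequenced on an Illumina HiSeq 2500. The library placed an intron with all eight P1ex-region nucleotides randomised inside the knt kanamycin-resistance gene on pET-22b(+), and cells grew overnight at 37°C or 30°C on LB agar with or without 25 μg/mL kanamycin (plus 100 μg/mL carbenicillin, 50 μM IPTG, 0.2% rhamnose). Fitness is the DiMSum error-weighted combination of wild-type-normalised replicate fold changes, kanamycin versus none.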

Sequence | self-splicing fitness (ln) (30 °C) | self-splicing fitness (ln) (37 °C)
UCGUAGCAAUAUUACGAACG | -2.5 ± 0.21 | -1.94 ± 0.23
UCGUAGCAAUAUUACGAAGA | -3.36 ± 0.5 | 
UCGUAGCAAUAUUACGAAUA |  | -2.55 ± 0.27
UCGUAGCAAUAUUACGACGU | -3.04 ± 0.28 | -1.58 ± 0.17
UCGUAGCAAUAUUACGAGGC | -0.464 ± 0.44 | 
UCGUAGCAAUAUUACGAGUC | -3.23 ± 0.17 | -2.47 ± 0.17
UCGUAGCAAUAUUACGAUCC | -2.46 ± 0.35 | 
UCGUAGCAAUAUUACGCGGA | -2.54 ± 0.17 | -1.4 ± 0.12
UCGUAGCAAUAUUACGCUCC | -2.47 ± 0.25 | 
UCGUAGCAAUAUUACGCUGU |  | -1.67 ± 0.28
UCGUAGCAAUAUUACGGAAG | -2.55 ± 0.29 | -1.94 ± 0.28
UCGUAGCAAUAUUACGGGAC |  | -2.5 ± 0.44
UCGUAGCAAUAUUACGGGAU | -4.41 ± 0.46 | -1.99 ± 0.31
UCGUAGCAAUAUUACGGUCG | -1.69 ± 0.12 | 0.265 ± 0.13
UCGUAGCAAUAUUACGGUCU | -2.83 ± 0.18 | -1.67 ± 0.16
UCGUAGCAAUAUUACGUAAA | -2.09 ± 0.2 | -0.594 ± 0.17
UCGUAGCAAUAUUACGUCUG | -0.251 ± 0.091 | -0.589 ± 0.12
UCGUAGCAAUAUUACGUGCC | -3.73 ± 0.33 | -1.13 ± 0.25
UCGUAGCAAUAUUACGUUCG | -1.45 ± 0.071 | -0.735 ± 0.086
UCGUAGCAAUAUUACGUUCU | -1.6 ± 0.23 | -1.49 ± 0.24
UCUAAGCAAUAUUACGAAGG | -2.53 ± 0.15 | -0.99 ± 0.16

Sequence | self-splicing fitness (ln) (30 °C) | self-splicing fitness (ln) (37 °C)
UCUAAGCAAUAUUACGAAUU | -3.75 ± 0.31 | -2.66 ± 0.25
UCUAAGCAAUAUUACGACAU | -3.444 ± 0.025 | -2.23 ± 0.037
UCUAAGCAAUAUUACGAGAU |  | -0.699 ± 0.22
UCUAAGCAAUAUUACGAUGU | -0.365 ± 0.06 | -0.355 ± 0.074
UCUAAGCAAUAUUACGCACU | -3.04 ± 0.24 | -1.52 ± 0.17
UCUAAGCAAUAUUACGCAUC | -2.99 ± 0.13 | -3.33 ± 0.23
UCUAAGCAAUAUUACGCUGC | -3.41 ± 0.19 | -2.84 ± 0.19
UCUAAGCAAUAUUACGCUUG |  | -2.59 ± 0.41
UCUAAGCAAUAUUACGGCAU | -3.46 ± 0.26 | -2.55 ± 0.21
UCUAAGCAAUAUUACGGGCG | -1.54 ± 0.11 | -0.979 ± 0.095
UCUAAGCAAUAUUACGGGGU | -2.9 ± 0.26 | -2.45 ± 0.21
UCUAAGCAAUAUUACGGUGC | -2.58 ± 0.12 | -2.85 ± 0.2
UCUAAGCAAUAUUACGGUUG | -2.82 ± 0.15 | -2.61 ± 0.18
UCUAAGCAAUAUUACGUAAC | -4.19 ± 0.24 | -2.94 ± 0.24
UCUAAGCAAUAUUACGUCUC |  | -3.38 ± 0.4
UCUAAGCAAUAUUACGUUGA | -1.71 ± 0.089 | -1.29 ± 0.086
UCUAAGCAAUAUUACGUUUU | -3.43 ± 0.19 | -3.06 ± 0.29
UCUCAGCAAUAUUACGAACC | -1.84 ± 0.18 | -1.69 ± 0.28
UCUCAGCAAUAUUACGACAC | -4.22 ± 0.26 | -3.33 ± 0.33
UCUCAGCAAUAUUACGAUGU | -1.07 ± 0.09 | -0.224 ± 0.12
UCUCAGCAAUAUUACGCAGU | -2.93 ± 0.16 | -1.96 ± 0.19
